Test results published in publication PMC8519809 (Cell Reports, 2021).

Target: SARS-CoV-2 S-HexaPro protein (SARS-CoV-2, Wuhan-Hu-1 type, stabilised)
Assay: SPR

B1: Fab22 (Fab, V domains shown)
VH: EVQLQQPGPVLVKPGASVRMSCKASGYRITDNFMNWVKQSHGKSLEWIGIINPYNGGTKYNQKFKGKATLTVDTSSSTAYMELNSLTSEDSAVYYCTRVRGNDYHGRAMDYWGQGTSVTVSS
VL: DVVLTQTPLSLPVNIGDQASISCKSTKSLLNRDGFTFLDWYLQKPGQSPQLLIYLVSNRFSGVPDRFSGSGSGTDFTLKISRVEAEDLGVYYCFQSNYLFTFGSGTKLEIK
Kd: 6.7 nM
